Source: patent US12577303B2
pEC50, pIC50: −log10 of the molar value. Read-outs that look alike come from different tables or passages of the source.

Legend:
[1] = target: human Sirpα-V1 on CHO-K1 hSirpα+ cells (human) (UniProt P78324); test: cell ELISA on CHO-K1 hSirpα+ cells
[2] = target: human Sirpα-V1-his (human) (UniProt P78324); test: blocking ELISA: hSirpα to CD47 (dimer)
[3] = target: human Sirpα-V1 recombinant protein (human) (UniProt P78324); test: ELISA
human Sirpβ-his (human) = human Sirpβ-his (human) (UniProt O00241); test: ELISA
[4] = target: human T cells (expressing Sirpγ) (human) (UniProt Q9P1W8); test: flow cytometry on human PBMC T cells, 10 µg/mL
[5] = target: human Sirpα-V1 recombinant protein (human) (UniProt P78324); test: ELISA; remark: listed apart in the source
[6] = target: human Sirpα-V1-hFc (human) (UniProt P78324); test: blocking ELISA: hSirpα (dimer) to CD47
[7] = target: human Sirpα-V1-his (human) (UniProt P78324); test: blocking ELISA: hSirpα to hCD47 (dimer)
[8] = target: human Sirpα-V1 on CHO-K1 hSirpα+ cells (human) (UniProt P78324); test: cell ELISA on hSirpα-v1+ cell strain
[9] = target: human T cells (expressing Sirpγ) (human) (UniProt Q9P1W8); test: flow cytometry on human PBMC T cells
[10] = target: human Sirpα-V1 recombinant protein (human) (UniProt P78324); test: ELISA; remark: listed apart in the source
[11] = target: human Sirpα-V1-hFc (human) (UniProt P78324); test: blocking ELISA: hSirpα (dimer) to hCD47

- pEC50 [1]: 9.43
- pIC50 [2]: 8.38
- pEC50 [3]: 10.24
- pEC50 (human Sirpβ-his (human)): 9.90
- proportion of cells with fluorescence intensity above 10^3 [4]: 0.49%
- pEC50 [5]: 9.77
- pIC50 [6]: 8.43
- pIC50 [7]: 8.34
- pEC50 [8]: 10.08
- T-cell binding activity (% binding) [9]: 1.79%
- pEC50 [10]: 10.14
- pIC50 [11]: 8.34
Substance: positive control antibody 1 (Ref1, OSE-172)
